In general, Kd refers to the constant that tells how readily two partners part at equilibrium. The low end stands for tighter binding, the high end for weaker binding.

The text below walks through data of article doi:10.1101/2024.01.20.576400 (bioRxiv, 2024).

In the assay the target is T1, Pwl2 without the signal peptide (residues 22-145) (Magnaporthe oryzae, UniProt G5EI71 22-145).
T1 sequence: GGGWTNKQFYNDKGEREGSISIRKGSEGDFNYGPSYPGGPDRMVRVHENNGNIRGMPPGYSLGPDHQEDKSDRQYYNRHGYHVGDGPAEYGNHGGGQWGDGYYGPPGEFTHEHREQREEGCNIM
The experiment in a line: ITC. On the technique in general: In ITC the heat of successive injections is recorded.

B1: HMA domain of OsHIPP43 (residues 26-101) (domain or fragment)
chain: RPLQTVNIKVKMDCEGCERRVKNAVKSMRGVTSVAVNPKQSRCTVTGYVEASKVLERVKSTGKAAEMWPYVPYTMT
For B1, the dissociation constant Kd was 191 nM and the dH is -67.6 kcal/mol.
